Target: T1, SBDMmo (sulfur binding domain of Type IV REase MmoMcrA) (Morganella morganii)
T1 chain: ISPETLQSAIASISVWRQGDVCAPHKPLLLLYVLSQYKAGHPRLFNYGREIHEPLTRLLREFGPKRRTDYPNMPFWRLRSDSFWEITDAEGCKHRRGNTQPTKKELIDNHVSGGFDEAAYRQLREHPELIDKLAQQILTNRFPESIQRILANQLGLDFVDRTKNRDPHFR
Test: EMSA

B1: PT-ssDNA GGCC-10F (ssDNA)
DNA: GTCGGCCCCA
modifications: phosphorothioate between G4 and G5 (stereochemistry not stated)
binding result: no binding

B2: PT-dsDNA GGCC-10F/10R (dsDNA)
DNA 1: GTCGGCCCCA
DNA 2: TGGGGCCGAC
modifications: phosphorothioate between G4 and G5 of strand 1 (hemi-PT; stereochemistry not stated)
binding result: binds

Source: article PMC9982451
